Data published in patent publication US20260049143A1 (KYMAB, published 2026).

Key:
[1] = target: T1, mouse ICOS expressed on CHO cells (mouse, UniProt Q9WVS0 21-141); assay: flow cytometry, CHO mouse ICOS cells, anti-human IgG AF647, mean
T1 construct: the cell-expressed form may differ; also called mICOS; CHO mouse ICOS
T1 sequence: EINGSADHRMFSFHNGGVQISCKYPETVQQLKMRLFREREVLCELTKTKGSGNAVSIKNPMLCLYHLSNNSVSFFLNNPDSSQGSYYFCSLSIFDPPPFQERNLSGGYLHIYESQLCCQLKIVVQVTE
Protocol: (§1) CHO-S cells transfected with either human ICOS or mouse ICOS were resuspended in FACS buffer (PBS+1% w/v BSA+0.1% w/v sodium azide) and transferred to a 96-well V-bottom plate (Greiner) at a density of 1×10⁵ cells per well. mAb and mAb² were titrated in FACS buffer, 1 in 3 dilution across 11 points from a starting working concentration of 400 nM. Plates were centrifuged at 300×g for 3 minutes, supernatant discarded and 50 μL mAb or mAb² solution were added to cells and incubated at 4° C. for 1 hour. Cells were washed with 150 μL of PBS and centrifuged at 300×g for 3 minutes, supernatant was discarded and cell pellet resuspended in 150 μL PBS added. This wash step was repeated twice. […] Cells were incubated for 1 hour at 4° C. in the dark. Cells were washed with 150 μL of PBS and centrifuged at 300 g for 3 minutes, supernatant was discarded and cell pellet resuspended in 150 μL PBS added. This wash step was repeated twice. Cells were fixed with 25 μL 4% v/v paraformaldehyde, incubated for 20 minutes at 4° C., cells were pelleted by centrifugation at 300×g and the supernatant discarded. Cells were washed with 150 μL of PBS and centrifuged at 300 g for 3 minutes, supernatant was discarded and cell pellet resuspended in 150 μL PBS added. This wash step was repeated. Pelleted cells were resuspended in 110 μL 1×PBS.

[2] = target: T2, Biotinylated human ICOS protein (human, UniProt Q9Y6W8 21-140, limits assumed, biotinylated); assay: avidity SPR (ProteOn), biotinylated hICOS on NLC chip; calculated on-rate
T2 sequence: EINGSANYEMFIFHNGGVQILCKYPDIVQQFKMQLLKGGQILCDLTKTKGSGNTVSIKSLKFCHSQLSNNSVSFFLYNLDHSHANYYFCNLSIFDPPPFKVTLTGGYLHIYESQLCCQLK
Protocol: Biotinylated human ICOS protein diluted at 7.5 μg/mL in running buffer (1×HBS-EP+Buffer Technova, cat. No. H8022) was captured on a NLC sensor chip (Bio-Rad, cat No 1765021). The surface was then blocked using biocytin (Sigma Aldrich, cat No B1758) at 1 mg/mL.
The assay was carried out at 25° C.
The buffer injection (i.e. 0 nM) was used to double reference the sensorgrams. The analysis was carried out using the equilibrium model inherent to the ProteOn's analysis software for each mAb² construct.

[3] = target: T3, mouse ICOS-mFc (Chimerigen) (mouse, UniProt Q9WVS0 21-141, limits assumed); assay: HTRF neutralisation of mouse B7-H2 binding to mouse ICOS-mFc, n1
T3 construct: Bought fusion; also called mICOS; recombinant mouse ICOS protein; not shown: mouse Fc
T3 sequence: T1 sequence
Protocol: (§2) 5 μl of human ICOS-mFc (Chimerigen) at 20 nM (5 nM final) or 5 μl of mouse ICOS-mFc (Chimerigen) at 4 nM (1 nM final) were added to relevant assay wells. Plate was incubated for 1 hour (hr) at room temperature (RT).
(§3) After incubation, assay was read on Envision plate reader (Perkin Elmer) using a standard HTRF protocol. 620 nm and 665 nm channel values were exported to Microsoft Excel and % Delta-F and % Neutralisation calculations performed. Titration curves and IC50 values [M] were plotted using Graphpad (Prism). IC50 values were calculated by first transforming the data using equation X=Log(X). The transformed data was then fitted using nonlinear regression, using fitting algorithm, log (inhibitor) vs. response-variable slope (four parameters).

[4] = target: T3, mouse ICOS-mFc (Chimerigen); assay: HTRF neutralisation of mouse B7-H2 binding to mouse ICOS-mFc, mean as told in text (table prints 5.07)
Protocol: as §3

[5] = target: T4, human ICOS-mFc (Chimerigen) (human, UniProt Q9Y6W8 21-140, limits assumed); assay: HTRF neutralisation of human B7-H2 binding to human ICOS-mFc, n3
T4 construct: Bought fusion; also called hICOS; recombinant human ICOS protein; not shown: mouse Fc
T4 sequence: T2 sequence
Protocol: as §2, §3

[6] = target: T3, mouse ICOS-mFc (Chimerigen); assay: HTRF neutralisation of mouse B7-H2 binding to mouse ICOS-mFc, average
Protocol: as §2, §3

[7] = target: T4, human ICOS-mFc (Chimerigen); assay: HTRF neutralisation of human B7-H2 binding to human ICOS-mFc, average
Protocol: as §2, §3

[8] = target: T1, mouse ICOS expressed on CHO cells; assay: flow cytometry, CHO mouse ICOS cells, anti-human IgG AF647, N=2
Protocol: as §1

[9] = target: T3, mouse ICOS-mFc (Chimerigen); assay: HTRF neutralisation of mouse B7-H2 binding to mouse ICOS-mFc, n2
Protocol: as §2, §3

B1: STIM001_457 (bispecific antibody, V domains shown, not shown: a dimerising Fc or GST)
VH: QVQVVQSGAEVKKPGASVKVSCKASGYTFSTFGITWVRQAPGQGLEWMGWISAYNGDTNYAQNLQGRVIMTTDTSTSTAYMELRSLRSDDTAVYYCARSSGHYYYYGMDVWGQGTTVTVSS
VL: DIVMTQSPLSLPVTPGEPASISCRSSQSLLHSNEYNYLDWYLQKPGQSPQLLIFLGSNRASGVPDRFSGSGSGTDFTLKITRVEAEDVGIYYCMQSLQTPLTFGGGTKVEIK
notes: mAb^2 IgG1; also called STIM001_457 mAb^2
Q: For B1, which EC50 [1] is on record?
A: 5.21 nM

Q: What about the kon [2] of the same binder?
A: 37600 M⁻¹ s⁻¹

Q: And the IC50 [3]?
A: 3.39 nM

Q: And the IC50 [4]?
A: 5.16 nM

Q: And the IC50 [5]?
A: 2.38 nM

Q: What about the IC50 [6] of the same binder?
A: 5.07 nM

Q: And the IC50 [7]?
A: 1.6 nM

Q: And the EC50 [8]?
A: 3.53 nM

Q: What about the IC50 [9] of the same binder?
A: 5.49 nM

B2: STIM003_457 (bispecific antibody, V domains shown, not shown: a dimerising Fc or GST)
VH: EVQLVESGGGVVRPGGSLRLSCVASGVTFDDYGMSWVRQAPGKGLEWVSGINWNGGDTDYSDSVKGRFTISRDNAKNSLYLQMNSLRAEDTALYYCARDFYGSGSYYHVPFDYWGQGILVTVSS
VL: EIVLTQSPGTLSLSPGERATLSCRASQSVSRSYLAWYQQKRGQAPRLLIYGASSRATGIPDRFSGDGSGTDFTLSISRLEPEDFAVYYCHQYDMSPFTFGPGTKVDIK
notes: mAb^2 IgG1; also called ST1M003_457; STIM003_457 mAb^2
Q: Which results are given for B2?
A: EC50 [1]: 10.6 nM; kon [2]: 275000 M⁻¹ s⁻¹; IC50 [3]: 0.087 nM; IC50 [5]: 0.77 nM; IC50 [7]: 0.56 nM; EC50 [8]: 11 nM
